± gives the half width of the 95% confidence interval.
How the values were obtained:
[1] = folding stability dG unfold from trypsin proteolysis; higher = more stable
Method in brief: (§1)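 Digests were run with trypsin and chymotrypsin at 11 concentrations in threefold dilutions, plus a no-protease condition, on designed mini-proteins in a PA-tagged cDNA display construct. The mini-proteins were under 80 residues, had no cysteine, and were kept only when AlphaFold2 dimer inter-PAE was above 15. After sequencing, Bayesian fitting of the counts gave K50, from which unfolding free energy was derived against a sequence-predicted unfolded-state K50 and a shared folded-state K50, per protease or combined.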

[2] = folding stability dG unfold from chymotrypsin proteolysis; higher = more stable
Method in brief: as §1

[3] = folding stability dG unfold (combined trypsin and chymotrypsin); higher = more stable
Method in brief: as §1

Sequence	folding stability dG unfold [1] [kcal/mol]	folding stability dG unfold [2] [kcal/mol]	folding stability dG unfold [3] [kcal/mol]
SAGGMTLTIEIVVPPGTTVEELKKALEELGYEITSIEVEYDPETDLVTVRMEIRLPPPPPVSEEEKKSAGGS [r16_584_TrROS_Hall]	1.87 ± 0.076	3.23 ± 0.16	2.73 ± 0.17
SAGGMTLTLIVPSKEEAERLAEALRALLPPGAKLEITVEEVTLKEDLPPDLPEVKEKKYLVVTIRLDSAGGS [r16_795_TrROS_Hall]	3.03 ± 0.14	3.5 ± 0.08	3.34 ± 0.1
SAGGMTLTLVLEANPPEAVEVAVARLLRELGFPDELKIEIDPVGDDKGRIIYPVTIEVNVPELAEKASAGGS [r8_85_TrMRF]	2.19 ± 0.042	2.62 ± 0.036	2.41 ± 0.13
SAGGMTLTVDEIKELLKKGYSLEEIKEALKKAGFEIVEIKKIEKKDGKIYIEIEFKKNKKIIKIEIPSAGGS [r8_179_TrROS_Hall]	3.38 ± 0.24	4.35 ± 0.18	4.2 ± 0.35
SAGGMTLVLRFPSKEEALEALRELAEALGLEVEITKIEIEEREVEDPETGEKRREVLITIEVKVKPPSAGGS [r16_587_TrROS_Hall]	3.83 ± 0.37	4.62 ± 0.14	4.48 ± 0.29
SAGGMTPEEARKLAEELAKKLEEEGKEVEVKVEVNKDGKVVKIEIKPEGEKVTITLPDGEKVLELELPSAGG [r13_693_TrROS_Hall]	1.09 ± 0.048	1 ± 0.089	1.03 ± 0.25
SAGGMTPEELEAAARAAAAALRAELEAGDPDVEVDLEVDPEKGTATFTVTDRATGRPRTLTVPFAELASAGG [r13_354_JUSTAS]	0.871 ± 0.074	1.94 ± 0.054	1.53 ± 0.073
SAGGMTTLTLETTDEGKPLGLEEILARLREALPGVPVEVLSADPAKGVVTIAVAPEAVPEIERAVAASAGGS [r8_235_JUSTAS]	1.69 ± 0.038	2.1 ± 0.022	1.96 ± 0.074
SAGGMTTTTTTYTIQLPNGETLTITITTTTLPGGITVTIPIGGTSPDQIAIAKELAEKLAAEIKEAASAGGS [r8_416_JUSTAS]	2.89 ± 0.096	3.83 ± 0.1	3.55 ± 0.11
SAGGMTTTTVEVKRLPNGSIERTLKTTVPLPNGDLVVTTTKSIVYREDGKVVKEEVLETETTLLPATSAGGS [r8_36_JUSTAS]	2.58 ± 0.082	2.92 ± 0.077	2.77 ± 0.074
SAGGMTVTLEIEIPAEELSEEELKALLEELFPNAEVTVERLPDGTLRITIRVEVPPAPPEVVVLPDKSAGGS [r16_535_TrROS_Hall]	2.63 ± 0.082	2.97 ± 0.12	2.88 ± 0.12
SAGGMTVTVKVKPDEYVIVEIENPVLDSTLTYVVPFNSPMTVTLPLPPDYKVKKITVVSPKKVSKELLSAGG [r13_119_JUSTAS]	1.22 ± 0.013	2.05 ± 0.059	1.78 ± 0.059
SAGGMTYVLPNGERLLVRVSVRTEPRLDPDRPELVLEPRVEIELFAVSPDLTLRPVPEELARELFEKESAGG [r13_809_TrMRF]	0.891 ± 0.019	1.33 ± 0.07	1.21 ± 0.044
SAGGMVDIYFPDAVIDDSGTKEDILEQLEKVTGKPIPEELREEILKGKTVEEIVELLKKRGFDVRVDSAGGS [r16_601_TrMRF]	2.8 ± 0.12	3.4 ± 0.059	3.13 ± 0.12
SAGGMVEIELEVDGKKIKITYDKETGKITIEIDGKKIEVELPEEDKGKSKEELLKKALEKAKEELKKSAGGS [r16_215_TrROS_Hall]	2.46 ± 0.23	2.46 ± 0.11	2.49 ± 0.11
SAGGMVEVKPFEIKPPGSSITVTLTDPQGNVIGSTTVSVPTGRLELTITVEPDKTVKVTLTELPPSEVSAGG [r13_935_JUSTAS]	1.42 ± 0.086	-0.262 ± 0.34	1.01 ± 0.13
SAGGMVIVIKTPGGASELEIGDLTITTNPDTGLRVAEATPEQIEELLKADALKDIEEIEVLPIEELLSAGGS [r8_493_TrMRF]	0.406 ± 0.047	-0.0529 ± 0.038	0.243 ± 0.11
SAGGMVKIVRVTFEDGRELVLTEPEKIEEFLKKALGPNFVIKEVREGYVPHPDGPPIPTFELVVERPSAGGS [r16_408_TrMRF]	2.11 ± 0.053	2.65 ± 0.021	2.44 ± 0.042
SAGGMVKVLKVETYPGTGEVIVTMELPGNTVATVRIPRAPDAPLTVSPDGVVTVPTAPVTELETTAPSAGGS [r16_515_JUSTAS]	-0.276 ± 0.053	0.591 ± 0.054	0.322 ± 0.049
SAGGMVLVEPSPDAVVRVIEREGDLARVTVYDPRSGARTVELVPIAPTGKGGVRLETLEVRVLPDAEASAGG [r13_556_JUSTAS]	-0.136 ± 0.035	-0.0954 ± 0.048	-0.0934 ± 0.057
SAGGMVLVSTPSNRGASSEILKEAAEAISAGDPDKAAELAREYFQKNFPPDEPIKIEIFVDPPVEPESAGGS [r8_48_TrMRF]	0.476 ± 0.011	0.744 ± 0.063	0.662 ± 0.044

Sequence	folding stability dG unfold [1] [kcal/mol]	folding stability dG unfold [2] [kcal/mol]	folding stability dG unfold [3] [kcal/mol]
SAGGMVTTESTKPYLLPNGTKATLTTTTTLYPDGTVVSPTTFTLTFPDGSSTTTTTTTVTTLASGALSAGGS [r16_505_JUSTAS]	0.836 ± 0.048	0.563 ± 0.089	0.727 ± 0.065
SAGGMVTVSTPLGLGYSEEIKARMEEYVKAGDPEAAKELAQEYIDAKYPPKWPVEISFHENPAISKKSAGGS [r8_48_JUSTAS]	-0.769 ± 0.38	-0.209 ± 0.18	-0.396 ± 0.36
SAGGMYMVQIEVRSPDKEIPFMIMVPEDDPKKIVDDIKEEIAEEAGADNVNIKIEVYRMDENGEWEWISAGG [r13_877_TrROS]	0.866 ± 0.088	1.01 ± 0.13	1.02 ± 0.11
SAGGMYVLPIDLDPASLTEEERLAVARELAEELYAAGVPGDVMLIIPREEKPLTITIDFATGEVTVVDSAGG [r19_204_JUSTAS]	1.32 ± 0.045	1.22 ± 0.055	1.31 ± 0.048
SAGGNFVVPFKDPEQVKEIREAAEKGEEIEITPPDGKKFTFKVESVEVDPESGRVVIKLPSGKEFPLSAGGS [r16_254_TrMRF]	0.275 ± 0.057	0.62 ± 0.24	0.617 ± 0.16
SAGGNIKIKLKGKIYDLNSNKYYDVEIEYDPKTGKAIITTPKGLKFEINPKEKKAEIPSKNYALEIGSAGGS [r16_743_TrMRF]	1.21 ± 0.096	1.37 ± 0.17	1.2 ± 0.16
SAGGNIKIQVENHEDGWYMKIWVPGNGKEQEYPFEPGDTIDTLPPGAEPVKIEWFHMNDNPQEFELDSAGGS [r8_487_TrROS]	0.295 ± 0.11	0.45 ± 0.23	0.421 ± 0.18
SAGGNINDIAKKLGLPPGGMIMIKDFSLEWHRMPMRVPEEDNDKPKEEKEVPMPMYKAEIKISLFPADSAGG [r13_482_TrROS]	0.955 ± 0.056	2 ± 0.13	1.52 ± 0.22
SAGGNIQIHYNPDWGVIRITYMFPSPTEAEDFIKKLLPPGYKIEPIEVERNPDGYYQVSIEIRLPKGASAGG [r13_338_TrROS]	2.82 ± 0.12	3.924 ± 0.036	3.64 ± 0.063
SAGGNNAWVQITIPITIKPVYEPEYDPDNGKPKWEPREMEIPITIWAPFDDPEDAERAADDILKSLGISAGG [r13_35_TrROS]	0.837 ± 0.037	0.769 ± 0.12	0.756 ± 0.1
SAGGNNIMIWIRKNPKEGKRKIMIYTDSPSWVEMIAEEAKDPGFKIVGPMTVEEAAQKMGFPPDLFISAGGS [r16_438_TrROS]	1.09 ± 0.14	1.29 ± 0.15	1.27 ± 0.2
SAGGNPDGKPDGGVSFVVNVAKTKPYIDPSTGKVYPVVEVKPVVIEVKKDEKLDLSELLKNTDYISVSSAGG [r13_753_TrMRF]	-0.463 ± 0.14	0.142 ± 0.13	0.0383 ± 0.12
SAGGNPRPIELYFPEGKIEKIQEKLREEDGYDVDIQMEQNPDGWFKINITFQDPQRVMDILEKFGITSAGGS [r16_172_TrROS]	1.19 ± 0.058	1.37 ± 0.031	1.26 ± 0.089
SAGGPDNIRIDLKIEPTGDSVKITFPIYNPNGSPIKVEMEYQRVGGKKFFRMKIEFGGRPIELWIPISAGGS [r16_476_TrROS]	3.4 ± 0.13	4.93 ± 0.094	4.7 ± 0.22
SAGGPEELAERIAEFARENGYEVDVLSVEELPGDFVRIHMRIRGLSEDEPVFERDAVLVFPPLPGERSAGGS [r8_102_TrMRF]	1.45 ± 0.025	3.439 ± 0.02	3 ± 0.052
SAGGPETRTFTIPAAPATVTVTLEKVGDGYRVSLTLTNPDGQTVEVPPDQPVVIPAGASVGAALAPESAGGS [r16_669_TrMRF]	1.01 ± 0.034	1.53 ± 0.091	1.35 ± 0.1
SAGGPEVEAERFGDTVLVRITLLDPETGEPYEFLAIATRRPDGTVTVTIIHPDGRPSTIPLPLLPLASAGGS [r16_154_TrMRF]	2.63 ± 0.16	1.88 ± 0.039	2.26 ± 0.14
SAGGPGAEIWFIKIPIEIEMKMKRKRENDPDGNPRPEWEMEMKIEIPIEIYPIRVRLDPDGKIKSIEFSAGG [r13_148_TrROS]	2.77 ± 0.15	4.3 ± 0.11	3.67 ± 0.23
SAGGPGMEPIGEIKLDDGVTIEVWRPPNGWYRAKVEFPDNGKQINYPFNPNMSFEQAKDQIKELARKLSAGG [r13_624_TrROS]	0.519 ± 0.13	1.86 ± 0.15	1.52 ± 0.36
SAGGPGRMREREFEIEFPFEPGQSIEDALRELIGLPPGIQIEDIKVEVDPEDGWVKISVTITVYDPNDSAGG [r13_828_TrROS]	1.22 ± 0.042	1.29 ± 0.071	1.29 ± 0.15
SAGGPKPKTYDIMIPFDSEEEAEKLMENPEWAKEIAKEIAPLFPGYDIKVEVSWHPETGYFMVKITVSAGGS [r16_320_TrROS]	3.21 ± 0.18	4.12 ± 0.18	4.01 ± 0.13
